Patent US20200270335A1 (Biogen, published 2020)

B1: untagged murine DKK2-C2 from E. coli (ligand)
chain: GSMPHIKGHEGDPCLRSSDCIDGFCCARHFWTKICKPVLHQGEVCTKQRKKGSHGLEIFQRCDCAKGLSCKVWKDATYSSKARLHVCQKI
notes: also called E. coli DKK2 C2; non-PEGylated untagged DKK2-C2
B2: PEGylated untagged murine DKK2-C2 from E. coli (ligand)
chain: B1 chain
modifications: monoPEGylated with 20k-PEG-2-methyl proprionaldehyde and sodium cyanoborohydride; site not stated
notes: also called monoPEGylated DKK2 C2; PEGylated version of DKK2 C2

What was measured:
[1] = target: T1, human LRP6 on huLRP6-expressing BaF3 cells (human, UniProt O75581 20-1613); test: FACS LRP6 binding assay, competition with anti-LRP6 antibody (FIG. 50)
T1 construct: whole, on cells; also called Lipoprotein receptor like protein 6
T1 sequence (O75581 20-1613): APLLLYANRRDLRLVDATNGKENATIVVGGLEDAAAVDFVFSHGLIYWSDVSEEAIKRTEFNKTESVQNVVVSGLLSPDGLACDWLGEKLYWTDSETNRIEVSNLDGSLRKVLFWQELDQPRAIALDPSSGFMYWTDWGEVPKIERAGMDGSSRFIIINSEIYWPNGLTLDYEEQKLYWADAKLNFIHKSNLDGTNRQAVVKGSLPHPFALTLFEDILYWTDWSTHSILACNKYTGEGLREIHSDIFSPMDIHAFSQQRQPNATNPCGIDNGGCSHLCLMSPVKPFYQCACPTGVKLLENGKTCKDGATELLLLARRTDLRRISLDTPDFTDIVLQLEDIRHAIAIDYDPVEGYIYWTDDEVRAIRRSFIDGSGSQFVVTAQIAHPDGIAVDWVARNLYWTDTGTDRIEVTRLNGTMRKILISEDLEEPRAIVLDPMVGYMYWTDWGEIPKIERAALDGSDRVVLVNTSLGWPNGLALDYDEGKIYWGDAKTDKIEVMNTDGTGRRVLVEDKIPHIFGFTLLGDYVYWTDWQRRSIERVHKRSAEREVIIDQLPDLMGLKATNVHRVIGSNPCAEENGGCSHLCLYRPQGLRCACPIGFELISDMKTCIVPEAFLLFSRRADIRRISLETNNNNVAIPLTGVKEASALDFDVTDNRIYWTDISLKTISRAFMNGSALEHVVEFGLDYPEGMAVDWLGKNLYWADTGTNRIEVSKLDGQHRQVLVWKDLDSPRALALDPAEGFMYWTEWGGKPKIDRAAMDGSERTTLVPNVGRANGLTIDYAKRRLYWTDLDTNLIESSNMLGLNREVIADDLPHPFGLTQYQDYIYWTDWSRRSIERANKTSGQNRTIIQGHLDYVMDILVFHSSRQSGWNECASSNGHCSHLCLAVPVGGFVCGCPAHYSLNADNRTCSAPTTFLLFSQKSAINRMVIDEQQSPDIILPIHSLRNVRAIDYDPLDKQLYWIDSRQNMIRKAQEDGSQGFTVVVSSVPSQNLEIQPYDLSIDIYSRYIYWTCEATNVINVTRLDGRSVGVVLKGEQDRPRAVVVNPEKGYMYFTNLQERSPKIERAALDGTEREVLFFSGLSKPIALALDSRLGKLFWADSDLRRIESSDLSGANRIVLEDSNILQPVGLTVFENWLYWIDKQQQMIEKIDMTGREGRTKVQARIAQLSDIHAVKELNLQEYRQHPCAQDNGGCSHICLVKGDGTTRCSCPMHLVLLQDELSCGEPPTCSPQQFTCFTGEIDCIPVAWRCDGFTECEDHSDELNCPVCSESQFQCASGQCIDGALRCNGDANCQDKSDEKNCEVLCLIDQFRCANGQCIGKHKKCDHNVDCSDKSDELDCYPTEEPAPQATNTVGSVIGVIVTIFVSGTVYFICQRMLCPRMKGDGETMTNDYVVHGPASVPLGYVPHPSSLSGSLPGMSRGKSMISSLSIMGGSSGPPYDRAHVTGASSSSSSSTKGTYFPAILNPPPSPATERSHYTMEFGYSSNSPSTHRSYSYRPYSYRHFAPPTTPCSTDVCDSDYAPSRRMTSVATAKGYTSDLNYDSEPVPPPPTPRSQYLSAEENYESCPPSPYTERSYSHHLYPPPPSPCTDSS

[2] = target: LRP6 of Super TopFlash (STF, HEK293) cells (UniProt O75581 20-1613, limits assumed); test: cell-based or functional assay
LRP6 of Super TopFlash (STF, HEK293) cells, sequence (O75581 20-1613 limits assumed): as the sequence (O75581 20-1613) above

Binder	IC50 [1]	IC50 in the Wnt signaling Super Top Flash (STF) activity assay [2]
B1	20 nM	~20 nM
B2	326 nM	–
